Data as given in patent US20210277140A1 (University of California, published 2021).
No end group written: not given here.

Columns and labels:
SNAP-Syk tSH2 [1] = target: T1, SNAP-Syk tSH2 (mouse, UniProt P48025 1-262); assay: liposome-based fluorescence quenching (FRET) assay; His10-FcRγ on NiNTA liposomes phosphorylated by Lck, 100 nM SNAP-505 Syk tSH2, receptor titrated 0-500 nM; apparent Kd, one site specific binding fit
Procedure: (§1) Experiments were carried out as previously described (Alvey C M et al., Current Biology 27:2065-2077, 2017). Briefly, proteins were purified using a bacterial expression system. All protein components (1 mg/ml BSA, 100 nM tSH2-Syk SNAP-505, 0 to 500 nM His10-CD3ζ or His10-FcRγ intracellular chain, and 7.2 nM His10-Lck Y505F) were mixed into kinase buffer (50 mM HEPES-NaOH pH 6.8, 150 mM NaCl, 10 mM MgCl₂, and 1 mM TCEP). Liposomes prepared at the following molar ratios: 74.5% POPC (Avanti, Catalog #850457C), 10% DOGS-NTA (Nickel) (Avanti, Catalog #790404C, 0.5% Rhodamine PE (Avanti, Catalog #810150C), and 15% DOPS (Avanti, Catalog #840035C) were added and the mixture was incubated for 40-60 minutes at room temperature, during which the SNAP-505 fluorescence was monitored at 8 s intervals with 504 nm excitation and 540 nm emission. 1 mM ATP was then injected to trigger Lck mediated phosphorylation of CD3ζ or FcRγ. Injection was followed by 5 seconds of automatic shaking of the plate, and the fluorescence was further monitored at 8 s intervals for at least 1 hr. Data were normalized by setting the average fluorescence value of the last 10 data points before ATP addition as 100% and background fluorescence as 0%. […]

SNAP-Syk tSH2 [2] = target: T1, SNAP-Syk tSH2; assay: liposome-based fluorescence quenching assay: SNAP-505-labelled Syk tSH2 reporter, rhodamine-PE liposomes carrying His10-receptor tail (0 to 500 nM) phosphorylated by His10-Lck Y505F after ATP; Kd ± SE from a one-site specific binding fit
Procedure: as §1

B1: His10-FcRγ (other, human)
chain: HHHHHHHHHHRLKIQVRKAAITSYEKSDGVYTGLSTRNQETYETLKHEKPP
modifications: not fully specified
notes: range 45-85; titrated 0 to 500 nM; also called His10-FcRγ intracellular chain; His10-FcRγ-chain
Kd (SNAP-Syk tSH2 [1]): ~30 nM | Kd (SNAP-Syk tSH2 [2]): 31.2 nM
